Assay [1] is described as follows: E. coli lysate screen of epPCR/DNA shuffling variants with CS0280. It counts as biochemical. As to conditions: Detection Reagent, 1 mM ATP, 500 μM substrate, 3 mins. The protocol: (§1) These experiments included lysing E. coli cells expressing each luciferase enzyme variant in Detection Reagent containing 1 mM ATP+500 μM substrate. The cell lysate was incubated at room temperature for 3 mins and luminescence was read. The raw luminescence reading was normalized to the on-plate luminescence of ATG-2889, which was used as a control in this screen.

Assay [2] can be described thus: E. coli lysate screen of epPCR/DNA shuffling variants with CS0333. The class given is biochemical. The conditions noted are these: Detection Reagent, 1 mM ATP, 500 μM substrate, 3 mins. On the procedure: as §1

Substitutions are numbered along the chain they refer to. In names and notes the source's numbering stands.

B1: C4584G5: SEQ ID NO: 57; H244W+T344A+I396K+K107Q+L305F (protein)
chain: MADKNILYGPEPFYPLEDGTAGEQMFDALSRYAAIPGCIALTNAHTKENVLYEEFLKLSCRLAESFKKYGLKQNDTIAVCSENSLQFFLPVIASLYLGIIVAPVNDQYIERELIHSLGIVKPRIVFCSKNTFQKVLNVKSKLKSIETIIILDLNEDLGGYQCLNNFISQNSDSNLDVKKFKPYSFNRDDQVASIMFSSGTTGLPKGVMLTHKNIVARFSIAKDPTFGNAINPTSAILTVIPFHWGFGMMTTLGYFTCGFRVVLMHTFEEKLFLQSLQDYKVESTLLVPTLMAFLAKSALVEKYDFSHLKEIASGGAPLSKEIGEMVKKRFKLNFVRQGYGLTEATSAVLITPKGDAKPGSTGKIVPLHAVKVVDPTTGKILGPNEPGELYFKGPMKMKGYYNNEEATKAIIDNDGWLRSGDIAYYDNDGHFYIVDRLKSLIKYKGYQVAPAEIEGILLQHPYIVDAGVTGIPDEAAGELPAAGVVVQTGKYLNEQIVQDYVASQVSTAKWLRGGVKFLDEIPKGSTGKIDRKVLRQMLEKHTNGHHHHHHHH
Regarding B1, in assay [1], the “Normalized luminescence (Mutant RLU/ATG2889 RLU) with CS0280” value is given as 4.39. Further, in assay [2], the “Normalized luminescence (Mutant RLU/ATG2889 RLU) with CS0333” value was 3.42.

B2: C4609F7: SEQ ID NO: 64; H244W+T344A+I396K+Y108F+V262A+L305F (protein)
chain: B1 chain with Q107K, Y108F, V262A
Consider B2, for which the “Normalized luminescence (Mutant RLU/ATG2889 RLU) with CS0280” value in assay [1] is on record as 3.90. Also, the “Normalized luminescence (Mutant RLU/ATG2889 RLU) with CS0333” value in assay [2] was found to be 6.04.

B3: C4580E9: SEQ ID NO: 54; H244W+T344A+I396K+N228D+V287I (protein)
chain: B1 chain with Q107K, N228D, V287I, F305L
As for B3, in assay [1], the “Normalized luminescence (Mutant RLU/ATG2889 RLU) with CS0280” value came out at 4.00. In assay [2], the “Normalized luminescence (Mutant RLU/ATG2889 RLU) with CS0333” value amounted to 6.51.

B4: C4589D5: SEQ ID NO: 59; H244W+T344A+I396K+A40A+K107Q+S193T+A316S (protein)
chain: B1 chain with S193T, F305L, A316S
In the case of B4, in assay [1], the “Normalized luminescence (Mutant RLU/ATG2889 RLU) with CS0280” value is given as 12.42. Also, the “Normalized luminescence (Mutant RLU/ATG2889 RLU) with CS0333” value in assay [2] is on record as 3.79.

B5: C4610H6: SEQ ID NO: 66; H244W+T344A+I396K+K107Q+N228D (protein)
chain: B1 chain with N228D, F305L
As to B5, in assay [1], the “Normalized luminescence (Mutant RLU/ATG2889 RLU) with CS0280” value is listed as 3.67. The “Normalized luminescence (Mutant RLU/ATG2889 RLU) with CS0333” value in assay [2] was found to be 4.15.

B6: C4604A11: SEQ ID NO: 62; H244W+T344A+I396K+I109M+A316S (protein)
chain: B1 chain with Q107K, I109M, F305L, A316S
Regarding B6, the “Normalized luminescence (Mutant RLU/ATG2889 RLU) with CS0280” value in assay [1] came to 12.16. The “Normalized luminescence (Mutant RLU/ATG2889 RLU) with CS0333” value in assay [2] worked out at 2.41.

B7: C4581C3: SEQ ID NO: 55; H244W+T344A+I396K+I109M+S193L (protein)
chain: B1 chain with Q107K, I109M, S193L, F305L
As for B7, the “Normalized luminescence (Mutant RLU/ATG2889 RLU) with CS0280” value in assay [1] is recorded as 3.88. Further, in assay [2], the “Normalized luminescence (Mutant RLU/ATG2889 RLU) with CS0333” value is listed as 1.04.

B8: C4584D9: SEQ ID NO: 56; H244W+T344A+I396K+I109M+S193L+L294H (protein)
chain: B1 chain with Q107K, I109M, S193L, L294H, F305L
Consider B8, for which the “Normalized luminescence (Mutant RLU/ATG2889 RLU) with CS0280” value in assay [1] is 12.41. The “Normalized luminescence (Mutant RLU/ATG2889 RLU) with CS0333” value in assay [2] is listed as 2.67.

B9: C4610C10: SEQ ID NO: 65; H244W+T344A+1396K+S306P (protein)
chain: B1 chain with Q107K, F305L, S306P
Regarding B9, the “Normalized luminescence (Mutant RLU/ATG2889 RLU) with CS0280” value in assay [1] worked out at 3.60. For the same molecule, the “Normalized luminescence (Mutant RLU/ATG2889 RLU) with CS0333” value in assay [2] is given as 4.32.
